# Measured values as given in patent US20260250318A1, “COMPOSITIONS AND METHODS FOR CROSSING THE BLOOD BRAIN BARRIER” (VOYAGER THERAPEUTICS, INC., priority 2022, published 2026).
# Tested on: mouse cells derived from the midbrain area
# Assay: scRNA-Seq and IHC of midbrain cells transduced by TTM-002
# Format: in vivo, SCID CB17 mice
# Settings: for % GFP Cells/Cluster: AAV_TTM-002.GFP particles, GFP sorted midbrain cells; for % GFP Cells/Cluster / % Payload Cells/Cluster: 28 days; for % Payload Cells/Cluster: AAV_TTM-002.payload particles, midbrain scRNA-Seq
# Description: AAV particles were generated with the TTM-002 capsid variant encapsulating a GFP transgene (AAV_TTM-002.GFP) or a payload driven by a heterologous CBA constitutive promoter (AAV_TTM-002.Payload).
# Two tandem single cell RNA sequencing runs (scRNA-Seq) of mouse cells derived from the midbrain area were performed. In the first run, cells were pooled from two mice at day 28 post treatment with AAV_TTM-002.Payload particles. In the second run we treated with AAV_TTM-002.GFP particles, in the same manner but without xenografts. Orthotopic xenografts of MDA-MB-361-Luc #1 high passage cells grown as tumorspheres (in tumorsphere media; Sigma #C-28070) were injected (250,000 cells/2 μL/mouse) intracranially into 2-month old female SCID CB17 (Mutation: Icr-Prkdcscid/IcrIcoCrl) congenic immunodeficient mice (Charles River Laboratories). The injections were 2.5 mm (lateral),-1 mm (posterior) with respect to bregma, lowered-3 mm ventral and raised +0.5 mm dorsal to a final-2.5 mm ventral position. Two days later, dilutions of the AAV_TTM-002.Payload particles (run 1), or in the case without xenografts, dilutions of AAV_TTM-002.GFP particles (run 2) were prepared. IV injections of 100 μL (2.5e11 VG/animal) of the AAV_TTM-002.payload particles or AAV_TTM-002.GFP particles were administered through the tail veins of mice (n=5 mice per groups). At 7 days post-injection, mice from run 1 were imaged in an AmiHTX (Spectral Imager) for bioluminescence of the human tumor cells due to expression of luciferase in response to intraperitoneal luciferin injections.
# At 28 days post-injection with the AAV_TTM-002.payload particles or AAV_TTM-002.GFP particles, two mice from each run were necropsied, brain samples were isolated, and the midbrain was dissected and isolated. The midbrain samples were then exposed to a cold protease inhibitor (Creative Biomart #NATE-0633) and were dissociated at 6 degrees centigrade. For the samples collected from the mice of run 1 (AAV_TTM-002.Payload particles), myelin depletion was performed (Miltenyi, #130-096-731), cells were filtered through a […] mesh to filter out neurons) and loaded on a 10X chromium G chip. scRNA-Seq was performed (10X Genomics) and samples were sequenced on a NextGen500 Sequencing machine (Illumina). For the samples collected from run 2 (AAV_TTM-002.GFP particles and no xenografts), the cells were not myelin depleted or filtered through […] mesh to include neurons. The cells isolated after run 2 were FACS sorted for GFP+/7AAD− (live GFP+ cells). The resultant cells were loaded on a 10× chromium G chip and the scRNA-Seq was run and processed (10× Genomics).
# For run 1, the scRNA-Seq data was filtered to include cells with only greater than 1000 genes per cell and less than 5000, and less than 20 percent mitochondrial gene expression. For run 2, the scRNA-Seq data was filtered to include cells with only greater than 200 genes per cell and less than 5000, and less than 20 percent mitochondrial gene expression. The data were normalized, scaled, and integrated into one combined dataset. Clusters were generated with a resolution of 0.3 and each cluster identity was determined using a panel of cell type specific genes (e.g., as described in Brown et al., 2021. “Deep Parallel Characterization of AAV Tropism and AAV-Mediated Transcriptional Changes via Single-Cell RNA Sequencing”. Front. Immunol. 12:730825; the contents of which are hereby incorporated by reference in its entirety). The percentage of GFP sorted cells per cluster was calculated as was the percentage of payload expressing genes per cluster as parallel measures of TTM-002 transduction.
# [1] = cluster Vascular smooth muscle cells (VSC)
molecule,measurement,setting,value
TTM-002: AAV9 capsid variant comprising HDSPHK (SEQ ID NO: 2) in loop IV (protein) chain 1: MAADGYLPDWLEDNLSEGIREWWALKPGAPQPKANQQHQDNARGLVLPGYKYLGPGNGLDKGEPVNAADAAALEHDKAYDQQLKAGDNPYLKYNHADAEFQERLKEDTSFGGNLGRAVFQAKKRLLEPLGLVEEAAKTAPGKKRPVEQSPQEPDSSAGIGKSGAQPAKKRLNFGQTGDTESVPDPQPIGEPPAAPSGVGSLTMASGGGAPVADNNEGADGVGSSSGNWHCDSQWLGDRVITTSTRTWALPTYNNHLYKQISNSTSGGSSNDNAYFGYSTPWGYFDFNRFHCHFSPRDWQRLINNNWGFRPKRLNFKLFNIQVKEVTDNNGVKTIANNLTSTVQVFTDSDYQLPYVLGSAHEGCLPPFPADVFMIPQYGYLTLNDGSQAVGRSSFYCLEYFPSQMLRTGNNFQFSYEFENVPFHSSYAHSQSLDRLMNPLIDQYLYYLSKTINGHDSPHKSGQNQQTLKFSVAGPSNMAVQGRNYIPGPSYRQQRVSTTVTQNNNSEFAWPGASSWALNGRNSLMNPGPAMASHKEGEDRFFPLSGSLIFGKQGTGRDNVDADKVMITNEEEIKTTNPVATESYGQVATNHQSAQAQAQTGWVQNQGILPGMVWQDRDVYLQGPIWAKIPHTDGNFHPSPLMGGFGMKHPPPQILIKNTPVPADPPTAFNKDKLNSFITQYSTGQVSVEIEWELQKENSKRWNPEIQYTSNYYKSNNVEFAVNTEGVYSEPRPIGTRYLTRNL chain 2: GHDSPHKSGQNQQT,IHC co-staining of GFP with cell markers,"brain samples, AAV_TTM-002.GFP",GFP co-localized with some but not all Olig2+ cells
same,% GFP Cells/Cluster,cluster Astrocyte,2.37%
same,% Payload Cells/Cluster,cluster Astrocyte,4.50%
same,% GFP Cells/Cluster,cluster Committed Oligos-2,0.00%
same,% Payload Cells/Cluster,cluster Committed Oligos-2,0.00%
same,% GFP Cells/Cluster,cluster Committed Oligos,0.00%
same,% Payload Cells/Cluster,cluster Committed Oligos,1.90%
same,% GFP Cells/Cluster,cluster Endothelial-1,3.45%
same,% Payload Cells/Cluster,cluster Endothelial-1,3.09%
same,% GFP Cells/Cluster,cluster Endothelial-2,6.58%
same,% Payload Cells/Cluster,cluster Endothelial-2,6.58%
same,% GFP Cells/Cluster,cluster Macrophages,0.00%
same,% Payload Cells/Cluster,cluster Macrophages,0.00%
same,% GFP Cells/Cluster,cluster Mature Oligos,0.00%
same,% Payload Cells/Cluster,cluster Mature Oligos,3.85%
same,% GFP Cells/Cluster,cluster Microglia,0.00%
same,% Payload Cells/Cluster,cluster Microglia,0.40%
same,% GFP Cells/Cluster,cluster Oligodendrocytes,0.00%
same,% Payload Cells/Cluster,cluster Oligodendrocytes,0.00%
same,% GFP Cells/Cluster,cluster Pericytes,0.77%
same,% Payload Cells/Cluster,cluster Pericytes,4.23%
same,% GFP Cells/Cluster,cluster Vascular and leptomeningeal Cells (VLM),2.38%
same,% Payload Cells/Cluster,cluster Vascular and leptomeningeal cells (VLM),0.00%
same,% GFP Cells/Cluster,[1],1.03%
same,% Payload Cells/Cluster,[1],1.72%
same,proportion of payload positive cells per cell type,"scRNA-Seq, AAV_TTM-002.Payload, day 28",endothelial cells had the highest proportion of payload positive cells
same,proportion of GFP positive cells per cell type,"scRNA-Seq, GFP+ sorted cells, AAV_TTM-002.GFP, day 28",endothelial cells had the highest proportion of GFP positive cells
